Experiment [1] has as its target Cfl2 (Cif-like epoxide hydrolase 2) from Burkholderia cenocepacia strain HI2424 (Burkholderia cenocepacia strain HI2424). In words: crystal structure; hanging drop vapor diffusion; X-ray, 2.2 Å; molecular replacement with a Cif monomer.
Experiment [2] addresses Cfl1 (Cif-like epoxide hydrolase 1) from Burkholderia cenocepacia strain J2315 / K56-2 (Burkholderia cenocepacia strain K56-2 (identical to strain J2315)). The experiment is described as above.

By stoichiometry N is commonly meant a count of units in the complex or per binding partner.

“Cfl2 (Cif-like epoxide hydrolase 2) from Burkholderia cenocepacia strain HI2424 (enzyme)” returned a stoichiometry N in experiment [1] of 10.
As to “Cfl1 (Cif-like epoxide hydrolase 1) from Burkholderia cenocepacia strain J2315 / K56-2 (enzyme)”, in experiment [2], the stoichiometry N is 8.
